Legend:
Experiment in all cases: IEDB peptide-MHC binding, purified MHC/direct/fluorescence; filed as Kd, often an IC50 or EC50 that approximates it; ≥ and ≤ were set here for values at or beyond the usual limits of such assays
Details in all cases: source organism: West Nile virus
HLA-B*15:01 = biological target: HLA-B*15:01
HLA-B*08:01 = biological target: HLA-B*08:01
HLA-B*07:02 = biological target: HLA-B*07:02
HLA-B*39:01 = biological target: HLA-B*39:01
HLA-A*26:01 = biological target: HLA-A*26:01
HLA-B*58:01 = biological target: HLA-B*58:01
HLA-A*01:01 = biological target: HLA-A*01:01
HLA-A*03:01 = biological target: HLA-A*03:01
HLA-B*27:05 = biological target: HLA-B*27:05
HLA-A*24:03 = biological target: HLA-A*24:03
HLA-A*02:01 = biological target: HLA-A*02:01
HLA-B*40:01 = biological target: HLA-B*40:01

Sequence: LMNDPGAPW
- Kd (HLA-B*15:01): 40 nM

Sequence: MLRKKQITV
- Kd (HLA-B*08:01): 35 nM

Sequence: RPAADGKTV
- Kd (HLA-B*07:02): 97 nM

Sequence: GRGPIRFVL
- Kd (HLA-B*39:01): 162 nM

Sequence: LLLLVAPAY
- Kd (HLA-B*15:01): 87 nM

Sequence: MTRGLLGSY
- Kd (HLA-A*26:01): 8 nM

Sequence: VSRLEHQMW
- Kd (HLA-B*58:01): 56 nM

Sequence: KIRNRIERL
- Kd (HLA-B*08:01): 254 nM

Sequence: IPTAAGKNL
- Kd (HLA-B*07:02): 150 nM

Sequence: GVIMPNGSY
- Kd (HLA-B*15:01): 29 nM

Sequence: LAALGDTAW
- Kd (HLA-B*58:01): 66 nM

Sequence: KSYAQMWLL
- Kd (HLA-B*58:01): 8 nM

Sequence: MTKEEFTRY
- Kd (HLA-A*01:01): 246 nM

Sequence: VLRKRWTAK
- Kd (HLA-A*03:01): 43 nM

Sequence: HTTKGAALM
- Kd (HLA-A*26:01): 23 nM

Sequence: ILRNPGYAL
- Kd (HLA-B*08:01): 483 nM

Sequence: RRFLEPVGK
- Kd (HLA-B*27:05): 50 nM

Sequence: FCIKVLCPY
- Kd (HLA-A*26:01): 314 nM

Sequence: VVEKQSGLY
- Kd (HLA-A*01:01): 6 nM

Sequence: RFVLALLAF
- Kd (HLA-A*24:03): 176 nM

Sequence: ILLWEIPDV
- Kd (HLA-A*02:01): ≤ 1 nM

Sequence: RRLAATTEK
- Kd (HLA-B*27:05): 37 nM

Sequence: RVIDSRKSV
- Kd (HLA-B*07:02): 97 nM

Sequence: WMILRAISF
- Kd (HLA-A*24:03): 120 nM

Sequence: YQPEREKVY
- Kd (HLA-B*15:01): 80 nM

Sequence: FTRYRKEAI
- Kd (HLA-B*08:01): 39 nM

Sequence: WEALDTMYV
- Kd (HLA-B*40:01): 27 nM

Sequence: ETTNWLWTF
- Kd (HLA-A*26:01): 5 nM

Sequence: TRAVGKPLL
- Kd (HLA-B*39:01): 141 nM

Sequence: GRMEKKTWK
- Kd (HLA-B*27:05): 103 nM

Sequence: SYTLKLGEY
- Kd (HLA-A*24:03): 143 nM

Sequence: RRYGGGLVR
- Kd (HLA-B*27:05): 62 nM

Sequence: RAWNSGYEW
- Kd (HLA-B*58:01): 16 nM

Sequence: RYLVKTESW
- Kd (HLA-A*24:03): 4 nM

Sequence: YTMDGEYRL
- Kd (HLA-B*39:01): 154 nM

Sequence: LTYRHKVVK
- Kd (HLA-A*03:01): 94 nM

Sequence: RESFGVESF
- Kd (HLA-B*40:01): ≤ 1 nM

Sequence: KVAAAGVSY
- Kd (HLA-B*15:01): 165 nM

Sequence: RPAVGGKTV
- Kd (HLA-B*07:02): 36 nM

Sequence: EYVGKTVWF
- Kd (HLA-A*24:03): 26 nM

Sequence: WYDWQQVPF
- Kd (HLA-A*24:03): 7 nM

Sequence: QPAFMVASF
- Kd (HLA-B*07:02): 71 nM

Sequence: REDIWCGSL
- Kd (HLA-B*40:01): 7 nM

Sequence: RRSRRSLTV
- Kd (HLA-B*27:05): 385 nM

Sequence: VLWDTPSPK
- Kd (HLA-A*03:01): 117 nM

Sequence: RVYSDHQAL
- Kd (HLA-B*07:02): 205 nM

Sequence: VLSLIGLKR
- Kd (HLA-A*03:01): 481 nM

Sequence: RLARAIIEL
- Kd (HLA-A*02:01): 3 nM

Sequence: ISGKSTDMW
- Kd (HLA-B*58:01): 91 nM

Sequence: FVDVGVSAL
- Kd (HLA-B*39:01): 52 nM

Sequence: AEVEEHRTV
- Kd (HLA-B*40:01): 130 nM

Sequence: VIQLNRKSY
- Kd (HLA-B*15:01): 105 nM

Sequence: HSRRSRRSL
- Kd (HLA-B*07:02): 47 nM

Sequence: TLARGFPFV
- Kd (HLA-A*02:01): 3 nM

Sequence: ETTNWLWAF
- Kd (HLA-A*26:01): 2 nM

Sequence: KENGVDLSV
- Kd (HLA-B*40:01): 3 nM

Sequence: LYAVTTAVL
- Kd (HLA-A*24:03): 8 nM

Sequence: GMSWITQGL
- Kd (HLA-A*02:01): ≤ 1 nM

Sequence: GLYKSAPRR
- Kd (HLA-A*03:01): 37 nM

Sequence: NEVEVITKL
- Kd (HLA-B*40:01): 80 nM

Sequence: NEAKVLELL
- Kd (HLA-B*40:01): 28 nM

Sequence: LAVSAYTPW
- Kd (HLA-B*58:01): 11 nM

Sequence: QTDNQLAVF
- Kd (HLA-A*01:01): 168 nM

Sequence: EVMTAVGLM
- Kd (HLA-A*26:01): 5 nM

Sequence: VLCPYMPKV
- Kd (HLA-A*02:01): 21 nM

Sequence: FLAVGGVLL
- Kd (HLA-A*02:01): 3 nM

Sequence: DTITNVTTM
- Kd (HLA-A*26:01): 4 nM

Sequence: GGRAHRMAL
- Kd (HLA-B*07:02): 63 nM

Sequence: GSRAIWFMW
- Kd (HLA-B*58:01): 87 nM

Sequence: VEGLGLQKL
- Kd (HLA-B*40:01): 230 nM

Sequence: KSFLVHREW
- Kd (HLA-B*58:01): 11 nM

Sequence: WFMWLGARF
- Kd (HLA-A*24:03): 10 nM

Sequence: SLFGGMSWI
- Kd (HLA-A*02:01): ≤ 1 nM

Sequence: LRWLVERRF
- Kd (HLA-B*27:05): 98 nM

Sequence: QEGALHQAL
- Kd (HLA-B*40:01): 14 nM

Sequence: REWFMDLNL
- Kd (HLA-B*40:01): 9 nM

Sequence: RRWCFDGPR
- Kd (HLA-B*27:05): 11 nM

Sequence: ITYTDVLRY
- Kd (HLA-A*01:01): 3 nM

Sequence: RVLEMVEDW
- Kd (HLA-B*58:01): 4 nM

Sequence: LLVAPAYSF
- Kd (HLA-B*15:01): 137 nM

Sequence: MVGVGSLVK
- Kd (HLA-A*03:01): 380 nM

Sequence: TVSPSAPTY
- Kd (HLA-B*15:01): 68 nM

Sequence: GYISTRVEL
- Kd (HLA-A*24:03): 45 nM

Sequence: AMFEEQNQW
- Kd (HLA-B*15:01): 17 nM

Sequence: SYHDRRWCF
- Kd (HLA-A*24:03): 9 nM

Sequence: GRLVTVNPF
- Kd (HLA-B*27:05): 75 nM

Sequence: TYGVCAKAF
- Kd (HLA-A*24:03): 13 nM

Sequence: REHSGNEIV
- Kd (HLA-B*40:01): ≤ 1 nM

Source: the Immune Epitope Database (IEDB)
